To fix the notation:
B1: Endoglucanase C, P0C2S3 (parent)
chain: MVSFKAGINLGGWISQYQVFSKEHFDTFITEKDIETIAEAGFDHVRLPFDYPIIESDDNVGEYKEDGLSYIDRCLEWCKKYNLGLVLDMHHAPGYRFQDFKTSTLFEDPNQQKRFVDIWRFLAKRYINEREHIAFELLNEVVEPDSTRWNKLMLEYIKAIREIDSTMWLYIGGNNYNSPDELKNLADIDDDYIVYNFHFYNPFFFTHQKAHWSESAMAYNRTVKYPGQYEGIEEFVKNNPKYSFMMELNNLKLNKELLRKDLKPAIEFREKKKCKLYCGEFGVIAIADLESRIKWHEDYISLLEEYDIGGAVWNYKKMDFEIYNEDRKPVSQELVNILARRKT

Variants of B1 are the subject of the series. The following applies: Acetivibrio thermocellus, pH 7.2, structure 1CEC, whole UniProt chain shown; for Tm / change of melting temperature, mutant - wild type (higher = more stable): Thermal, DSC, Tris 20 mM, reversible: No.
Setting [1] is: 25 °C, GdnHCl, CD, Tris 50 mM, reversible: yes.

Broadly, the Tm is the temperature at which the thermal transition is half complete.

N9D: the melting temperature (Tm) was found to be 63.9 °C and the “change of melting temperature, mutant - wild type (higher = more stable)” value (“change of melting temperature, mutant” for short) is -6.5 °C.
Consider A6C R340C, for which the Tm was found to be 73.4 °C. Under setting [1], the “ddG of mutation (higher = less stable)” value was -1.73 kcal/mol, the “denaturant midpoint (higher = more stable)” value was 2.61 M and the unfolding free energy was 8.03 kcal/mol.
N220D T222A: the Tm was 68.3 °C and the “change of melting temperature, mutant” value is -2.1 °C.
Take E333G: the Tm stood at 69.4 °C and the “change of melting temperature, mutant” value is -1 °C.
For the variant I293A, the Tm is 67.6 °C and the “change of melting temperature, mutant” value is -2.8 °C.
